This note sets out measurements from publication PMC5053900 (The FEBS journal, 2016).

Read-outs that look alike come from different tables or passages of the source.

First the molecules themselves.
B3: UbaA, E1-like SAMP-activating enzyme of Haloferax volcanii, purified wild type (enzyme, UniProt D4GSF3 1-270, looked up)
chain: MTLSLDATQLDRYSRHIIMDEVGPEGQGRLLSSRVVVVGAGGLGAPAIQYLAAVGVGELVVVDDDVVERSNLQRQVVHCDDDVGTPKAESAAAFVRGLNPDVSVEPVEARVDKSNVHEVVAGSDVVVDASDNFPTRYLLNDVCRFEGIPLVHGAIYKFEGQATTLVPDGPCYRCLFPEAPEPGTVPDCATTGVLGVLPGTVGCIQATEAMKLLLDEGEALDGRLLFYDAMDMTFETVPYRTNPDCPVCGEGGVDSIEDIDYVESCAISLD

Series [1] addresses B3. The experiment in a line: ITC. (Isothermal titration calorimetry measures the heat released or taken up as one component is titrated into another.)
In series [2] the target is B3. The experiment in a line: ITC. The source holds these as a separate data set.
Series [3] addresses B3. The experiment in a line: ITC. This is another data set of the same source.
For series [4], the target named is B3. The experiment in a line: ITC. This is another data set of the same source.
The series “SEC” deals with the molecule itself. As to the kind of experiment: SEC. Background: In gel filtration, larger molecules generally elute earlier.

By Kd is commonly meant a measure of binding affinity in units of concentration. Read a low Kd as tighter binding. A word on the stoichiometry N: it is the number of molecules, sites or subunits per partner or assembly.

B1: SAMP1, small ubiquitin-like archaeal modifier protein 1, purified (natural protein, Haloferax volcanii, UniProt D4GUF6 1-87, looked up)
chain: MEWKLFADLAEVAGSRTVRVDVDGDATVGDALDALVGAHPALESRVFGDDGELYDHINVLRNGEAAALGEATAAGDELALFPPVSGG
With B1, in series [1], the Ka came to 250000 M⁻¹, the Kd was determined as 4.1 µM, the dH was found to be 16 kJ/mol and the “stoichiometry N” value was determined as 1.02. In series [2], the Ka turned out to be 590000 M⁻¹, the Kd turned out to be 1700 nM, the dH was 36.2 kJ/mol and the “stoichiometry N” value was 0.95. In series [3], the Ka was found to be 230000 M⁻¹, the dissociation constant Kd amounted to 4.4 µM, the dH came to 20.7 kJ/mol and the “stoichiometry N” value came out at 0.95. Moreover, in series [4], the Ka worked out at 850000 M⁻¹, binding was characterised by a dissociation constant (Kd) of 1200 nM, the dH was 12.2 kJ/mol and the “stoichiometry N” value was 0.98.

B2: SAMP2, small ubiquitin-like archaeal modifier protein 2, purified (natural protein, Haloferax volcanii, UniProt D4GZE7 1-66, looked up)
chain: MNVTVEVVGEETSEVAVDDDGTYADLVRAVDLSPHEVTVLVDGRPVPEDQSVEVDRVKVLRLIKGG
Consider B2, for which, in series [4], the Ka is 230000 M⁻¹, the Kd turned out to be 4300 nM, the dH was -69 kJ/mol and the “stoichiometry N” value came to 0.99.
Consider B3, for which, in the series “SEC”, the “stoichiometry N” value is 2.

B4: UbaA D131N, purified (enzyme, Haloferax volcanii, UniProt D4GSF3 1-270, looked up)
chain: MTLSLDATQLDRYSRHIIMDEVGPEGQGRLLSSRVVVVGAGGLGAPAIQYLAAVGVGELVVVDDDVVERSNLQRQVVHCDDDVGTPKAESAAAFVRGLNPDVSVEPVEARVDKSNVHEVVAGSDVVVDASNNFPTRYLLNDVCRFEGIPLVHGAIYKFEGQATTLVPDGPCYRCLFPEAPEPGTVPDCATTGVLGVLPGTVGCIQATEAMKLLLDEGEALDGRLLFYDAMDMTFETVPYRTNPDCPVCGEGGVDSIEDIDYVESCAISLD
As for B4, in the series “SEC”, the “stoichiometry N” value is 2.

B5: UbaA K87R, purified (enzyme, Haloferax volcanii, UniProt D4GSF3 1-270, looked up)
chain: MTLSLDATQLDRYSRHIIMDEVGPEGQGRLLSSRVVVVGAGGLGAPAIQYLAAVGVGELVVVDDDVVERSNLQRQVVHCDDDVGTPRAESAAAFVRGLNPDVSVEPVEARVDKSNVHEVVAGSDVVVDASDNFPTRYLLNDVCRFEGIPLVHGAIYKFEGQATTLVPDGPCYRCLFPEAPEPGTVPDCATTGVLGVLPGTVGCIQATEAMKLLLDEGEALDGRLLFYDAMDMTFETVPYRTNPDCPVCGEGGVDSIEDIDYVESCAISLD
As for B5, the “stoichiometry N” value in “SEC” came out at 2.

B6: UbaA C188A, purified (enzyme, Haloferax volcanii, UniProt D4GSF3 1-270, looked up)
chain: MTLSLDATQLDRYSRHIIMDEVGPEGQGRLLSSRVVVVGAGGLGAPAIQYLAAVGVGELVVVDDDVVERSNLQRQVVHCDDDVGTPKAESAAAFVRGLNPDVSVEPVEARVDKSNVHEVVAGSDVVVDASDNFPTRYLLNDVCRFEGIPLVHGAIYKFEGQATTLVPDGPCYRCLFPEAPEPGTVPDAATTGVLGVLPGTVGCIQATEAMKLLLDEGEALDGRLLFYDAMDMTFETVPYRTNPDCPVCGEGGVDSIEDIDYVESCAISLD
Consider B6, for which the “stoichiometry N” value in the series “SEC” was found to be 2.
